Test results taken from the supplement of paper PMC9732359.
± gives the uncertainty stated by the source.

Test: protein stability index of a GFP-peptide fusion (yeast GPS) (PSI 1-4); higher = more stable; sorted into four equal gates, so the index is relative within each strain
Conditions: ubr1∆
In short: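 Tiled 17-residue yeast protein peptides were fused downstream of GFP in a plasmid that also expresses Cherry, and the pooled library was carried in yeast. Mid-log cultures in leucine-free medium were sorted into four equal gates by GFP/Cherry fluorescence ratio, and plasmids from each gate were PCR-amplified and Illumina-sequenced, with reads assigned to strains by barcodes. The protein stability index for each peptide was each gate's read frequency times its gate number, summed.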
Sequence VNGPNVHPGANYLLKRN [RPO31] has a protein stability index of 3.21 ± 0.037.
VNGRTKSNTIPVTSIPS [GAL11] gave a protein stability index of 2.95 ± 0.079.
VNHLLLFAREIAKSQDK [DPB4] gave a protein stability index of 2.08 ± 0.068.
With VNQDKANNASQITPTVP [SNF12] the protein stability index was 3.18 ± 0.054.
Work on VNQTGSTKKDTVQLTFL [YCG1] yielded a protein stability index of 2.9 ± 0.16.
In the case of VNSYRLNPNEYFSVTTA [SWI3], the protein stability index is reported as 2.78 ± 0.22.
VNYNSDMIKCFLPKLNS [NUT1] gave a protein stability index of 1.27 ± 0.066.
VNYRHFKAMEDVIAWKN [ITC1] showed a protein stability index of 3.37 ± 0.065.
VPEMIGSVVGIYNGKAF [RPS15] showed a protein stability index of 1.41 ± 0.072.
For VPHSHPSDMVIPDHLAE [SNF12], the protein stability index was 2.31 ± 0.03.
VPKHMLDKLDEILYYQI [AAR2] gave a protein stability index of 3.17 ± 0.063.
VPSFLRPDITMYCRPAP [GRR1] showed a protein stability index of 2.38 ± 0.051.
Sequence VPTSIQTKRWPTMYTRL [SIN4] has a protein stability index of 2.62 ± 0.039.
Sequence VPVIVKARFVSKLAEEK [RPL28] has a protein stability index of 2.861 ± 0.02.
Sequence VPYVLMGQIATFIYFAY [COB] has a protein stability index of 1.28 ± 0.078.
VQDLGSAISVTNVEDPL [SIR2] showed a protein stability index of 2.21 ± 0.054.
VQDRGLSAVAQAESMKF [RPS3] showed a protein stability index of 2.9 ± 0.075.
VQELLKVLNEISKTTLT [RPN3] showed a protein stability index of 3.39 ± 0.071.
In the case of VQGSTLAQLTSKLIPEV [RPS1A], the protein stability index is reported as 2.76 ± 0.045.
Sequence VQKQTRAGQRTRFKAVV [RPS2] has a protein stability index of 3.23 ± 0.088.
Work on VQKRDEVKEQLGILKKK [SMC4] yielded a protein stability index of 2.78 ± 0.05.
For VQLLLHINSILLARVIQ [SNF11], the protein stability index was 1.47 ± 0.087.
VQQQQQQQLRNQIQRQQ [SNF5] gave a protein stability index of 2.06 ± 0.074.
With VQSGQIYINKSVPTNSA [RET1] the protein stability index was 3.33 ± 0.086.
For VQSKARYTVRTFGIRRN [RPL11A], the protein stability index was 1.53 ± 0.086.
VQYLRSVQDLGGSATAR [YML031W/NDC1] gave a protein stability index of 1.57 ± 0.064.
For VRAVNTGMEPGKTSFFQ [RPP0], the protein stability index was 2.42 ± 0.25.
With VRDTSPHGISVFLSNLV [BRR2] the protein stability index was 2.34 ± 0.049.
Sequence VRGGNIEIMGILMGFTL [RRI1] has a protein stability index of 2.9 ± 0.096.
With VRRGNRKRPVPKGATYG [RPL15A] the protein stability index was 3.44 ± 0.14.
Work on VRSANEDGTFSVLYPDE [RRP43] yielded a protein stability index of 3.28 ± 0.1.
VRTRGGNKKYRALRIET [RPS8A] gave a protein stability index of 2.853 ± 0.022.
In the case of VSALQMLKQHLFKYQGH [PUP1], the protein stability index is reported as 2.57 ± 0.05.
With VSDDESNGEVLEVGKNN [RPN14] the protein stability index was 3.24 ± 0.056.
Sequence VSFRTHNSHLSLNYKFT [SRP21] has a protein stability index of 3.15 ± 0.039.
For VSGDAAALFRLHKFLTK [SWI3], the protein stability index was 3.08 ± 0.11.
In the case of VSLPEGSFKRVKPQYDE [BRR2], the protein stability index is reported as 2.95 ± 0.14.
VSNENKKNIDYQNRSTR [RRI1] gave a protein stability index of 3.25 ± 0.055.
VSNPIRKVFKPSQGMVV [FAS1] showed a protein stability index of 2.66 ± 0.068.
VSSKCNDIHLRFMRFLA [ECM29] gave a protein stability index of 2.08 ± 0.08.
VSSTIPRETIPFLHLRK [FAS2] showed a protein stability index of 2.6 ± 0.15.
VSTAAAATVRSTIRRLR [RPL43A] gave a protein stability index of 2.95 ± 0.057.
Sequence VSTKMHRTIVIRRAYLH [RPS11A] has a protein stability index of 1.12 ± 0.033.
VSTPEKWDITTRNSNNL [BRR2] gave a protein stability index of 3.04 ± 0.069.
For VTIASEIYYDPDPRSTV [RPO21], the protein stability index was 2.52 ± 0.11.
Sequence VTIREQINIMPSLKAHF [SIR3] has a protein stability index of 2.68 ± 0.043.
Sequence VTKEYFQDVYDLTGSEP [FAS1] has a protein stability index of 2.68 ± 0.092.
Sequence VTKQSELNSSEDILEDM [SMC1] has a protein stability index of 3.18 ± 0.049.
In the case of VTRLFFICSIIQTVVIS [YML031W/NDC1], the protein stability index is reported as 1.75 ± 0.05.
For VTTKDDLSGADIQAMCT [RPT2], the protein stability index was 3.35 ± 0.06.
With VTTNINWRSFNAKIIDA [SRP68] the protein stability index was 3.18 ± 0.05.
Sequence VTYALSGYVRSRGESDD [RPS21A] has a protein stability index of 3.3 ± 0.19.
VVAKKDFNQAKHEEIDT [RPS10A] gave a protein stability index of 3.09 ± 0.081.
VVDGTVVSCSQHGFEVQ [RPB7] showed a protein stability index of 3.28 ± 0.07.
VVDPKTSIEKSSEILSY [YML103C/NUP188] gave a protein stability index of 1.12 ± 0.063.
With VVDVALKYPELSIKNSF [NUT1] the protein stability index was 2.77 ± 0.047.
Work on VVEKEKIESLAGGGESD [UBP6] yielded a protein stability index of 3.34 ± 0.15.
VVIDAKDHLLGRLASTI [RPL16B] gave a protein stability index of 1.35 ± 0.078.
Sequence VVKASELDQFWQEYSSV [SRP14] has a protein stability index of 3.27 ± 0.048.
Work on VVLYNYYLGQYYGCLEN [CSN12] yielded a protein stability index of 1.97 ± 0.13.
VVNSNFAKEHNATVNLA [YJR042W/NUP85] showed a protein stability index of 2.67 ± 0.13.
With VVPNEKADDDSVTIISA [ASC1] the protein stability index was 2.91 ± 0.076.
VVQDSQTATQLLERGRL [SMC2] gave a protein stability index of 2.5 ± 0.058.
In the case of VVVSGKLRAARAKAMKF [RPS3], the protein stability index is reported as 3.28 ± 0.29.
Work on VYAFKAKNKSTRINGLN [REC8] yielded a protein stability index of 1.59 ± 0.12.
WDLLQSGSQNISEFDSF [RPN12] gave a protein stability index of 3.22 ± 0.067.
In the case of WGGFPLDISVFLLEKAG [TAF14], the protein stability index is reported as 3.15 ± 0.075.
With WIQVFGLRTENVLDYFA [MED6] the protein stability index was 2.34 ± 0.067.
Sequence WKEVLAHNPELERYVKR [RPO31] has a protein stability index of 3.45 ± 0.099.
WKNLVLKLSQAFGSSAT [YJR042W/NUP85] gave a protein stability index of 1.93 ± 0.044.
Work on WKYEDVVAKLEDKRKVR [RPL16B] yielded a protein stability index of 2.02 ± 0.045.
In the case of WMMNGALQILNSGIIPG [FAS2], the protein stability index is reported as 1.46 ± 0.24.
WNLNQFQIEADFIGHNS [ASC1] showed a protein stability index of 2.52 ± 0.059.
Sequence WNRLTISVTDTEVERAK [COR1] has a protein stability index of 3.21 ± 0.085.
WTEASSSGAGTVKLYLP [ECM29] gave a protein stability index of 2.02 ± 0.05.
In the case of YAIIINYTKDNEYYPMC [YCS4], the protein stability index is reported as 1.51 ± 0.082.
YAKEDAFSYPRMYEEAS [RPN2] showed a protein stability index of 1.43 ± 0.058.
Work on YASKINRAEGPEELARI [RGR1] yielded a protein stability index of 3.24 ± 0.071.
YAVAEQCPVKSAEDQLY [QCR2] showed a protein stability index of 3.34 ± 0.21.
YDEDPYGFEDESAPITA [RPB2] showed a protein stability index of 3.17 ± 0.065.
For YDGDTVTFSPTGRLFQV [PRE5], the protein stability index was 3.08 ± 0.061.
In the case of YDPKDALKNACNSIINK [RPB11], the protein stability index is reported as 3.37 ± 0.15.
For YEAPRHGHLGFLPRKRA [RPL3], the protein stability index was 2.72 ± 0.09.
For YEDSGSTYKHDRGIANI [SRB4], the protein stability index was 3.36 ± 0.096.
In the case of YEFPIEGIEIYDRKKLP [RPC11], the protein stability index is reported as 3.3 ± 0.17.
With YEMVIREKNALKRLAWQ [ISW2] the protein stability index was 2.37 ± 0.055.
YEQHIENIEPLDPINLP [PRP8] gave a protein stability index of 2.8 ± 0.071.
With YFKSILLNKNTGNNLYD [SWI1] the protein stability index was 2.19 ± 0.031.
Sequence YFLRRQYILQIVSFIVN [YJL039C/NUP192] has a protein stability index of 1.1 ± 0.055.
With YFRILLPYERHMISQEG [SWI1] the protein stability index was 1.6 ± 0.045.
Sequence YGGDGLDPLEMEGNAQP [RPO31] has a protein stability index of 3.29 ± 0.089.
In the case of YGKLRNGMFCQVPSSLI [RRP4], the protein stability index is reported as 2 ± 0.072.
YGRDDMENIKKSIDSKT [ISW2] gave a protein stability index of 3.03 ± 0.082.
In the case of YHGNECEINYYEILLKI [SRB8], the protein stability index is reported as 2.4 ± 0.082.
YIDEMYNHNDGGDGRDY [RRI1] gave a protein stability index of 2.75 ± 0.13.
Work on YILSLVSIKDSTGCVVG [YMR129W/POM152] yielded a protein stability index of 1.48 ± 0.034.
With YISLLKLQGLYENIPIY [YDL116W/NUP84] the protein stability index was 1.25 ± 0.041.
For YIYSQETKSWINESAEN [MED1], the protein stability index was 2.48 ± 0.031.
Work on YKDVSDLIRSESMLHLS [IRR1] yielded a protein stability index of 2.01 ± 0.043.
Work on YKHIDASGSINRKVLQA [RPS19A] yielded a protein stability index of 2.53 ± 0.083.
YKVDAEGKVTKLRRECS [RPS31] showed a protein stability index of 3.22 ± 0.078.
Sequence YLCFILSTRAGGLGLNL [SNF2] has a protein stability index of 2.6 ± 0.11.
